The values that follow come from patent US11466260B2, “Thermostable haloarchaeal inorganic pyrophosphatase” (UNIVERSITY OF FLORIDA RESEARCH FOUNDATION, INCORPORATED, priority 2015, dated 2022).

Like-named read-outs stand apart in the source and are kept apart here.

The target in data set [1] is T1, HvPPA (Haloferax volcanii, UniProt D4GT97).
T1 construct: thrombin-cleavage site (linker between His6 and HvPPA) (N); made in house; host or cells: Haloferax volcanii H26-pJAM2920
T1 sequence (D4GT97 1-177): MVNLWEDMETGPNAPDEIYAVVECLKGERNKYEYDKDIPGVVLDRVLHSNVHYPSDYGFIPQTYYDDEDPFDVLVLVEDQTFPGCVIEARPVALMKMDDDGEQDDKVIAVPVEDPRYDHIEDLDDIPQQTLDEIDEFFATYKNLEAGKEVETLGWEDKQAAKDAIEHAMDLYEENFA
Put plainly: Sodium fluoride-based inhibition of HvPPA. In kind it is biochemical. Conditions: Ki.
Experimental: A) HvPPA (1.3 μg) was assayed in 1 ml reaction volume containing 1 mM PPi, 10 mM MgCl2, 3 M NaCl and 20 mM Tris-Cl buffer pH 7.5 supplemented with NaF as indicated. Reactions were monitored for 15 min at RT.
HvPPA-mediated hydrolysis of PPi to Pi was determined spectrophotometrically. Reagents were in nanopure water (Barnstead/Thermolyne Nanopure lab water system). Sodium pyrophosphate tetrabasic decahydrate (Sigma Aldrich) was used as a substrate. For kinetic measurements, reaction mixtures (500 μl total) contained 0.5-1 μg HvPPA and 1 mM PPi in high-salt buffer (3 M NaCl and 20 mM Tris-HCl, pH 8.5). Reactions were incubated at 42° C. for 1-3 min. Orthophosphate levels were determined by malachite green assay. Briefly, 2.5 ml of 14% (w/v) (NH4)2MoO4 and 0.2 ml of 11% (v/v) TWEEN 20 ® (Polyoxyethylene sorbitan monolaurate) were added into a 10-ml color reagent I (containing 1.67 ml conc. sulfuric acid, 8.33 ml nanopure H2O, and 12.22 mg malachite green). In triplicate, 50 μl of the color reagent was mixed with 200 μl of the reaction mixture and incubated at room temperature for 10 min. The formation of (MG^+)(H2PMo12O40) (where MG^+ represents ionized malachite green) was monitored at A630. A less sensitive malachite green assay was also used in which reaction aliquots (50 μl) were mixed with 250 μl color reagent II and 10 μl 1.5% (v/v) TWEEN 20 ® (Polyoxyethylene sorbitan monolaurate) in triplicate; product formation was immediately monitored at A650. Color reagent II was generated by mixing 1 volume of 4.2% (w/v) (NH4)2MoO4 in 5 N HCl with 3 volumes of 0.2% (w/v) malachite green; after 30 minutes, the solution was filtered with a 0.45 μm filter and stored at room temperature. Freeze-dried KH2PO4 was used as the standard. Assay mixtures with PPi minus HvPPA were used for individual background subtraction. All proteins used in this assay were buffer-exchanged with Tris-high-salt buffer in nanopure H2O prior to use. All experiments were performed in triplicate and the mean±standard deviation (S.D.) was calculated.

The conditions of data set [2]: cited from earlier work; for Vmax: highest reported.

In the case of `F` [NaF, sodium fluoride], the Ki in data set [1] (pH 7.5) is 200 µM; in data set [1] (pH 8.5), 1800 µM.

B1: Thermoplasma acidophilum: Class A type inorganic pyrophosphatase of Thermoplasma acidophilum (protein, UniProt P37981 1-179, looked up)
Inorganic pyrophosphatase: MESFYHSVPVGPKPPEEVYVIVEIPRGSRVKYEIAKDFPGMLVDRVLYSSVVYPVDYGLIPRTLYYDGDPMDVMVLISQPTFPGAIMKVRPIGMMKMVDQGETDNKILAVFDKDPNVSYIKDLKDVNAHLLDEIANFFSTYKILEKKETKVLGWEGKEAALKEIEVSIKMYEEKYGKKN
Turning to B1, in data set [2] (56° C.), the Vmax is 1100 U · mg^−1. Besides, the “Hill coefficient(s) (Mg^2+)” value in data set [2] is 1.8 (Mg^2+). Moreover, the Km in data set [2] (for Mg^2+, read-out: Km Mg^2+) was 1700 µM; in data set [2] (for PPi, read-out: Km PPi), 7 µM.

B2: Methanothermobacter thermautotrophicus: Class A type inorganic pyrophosphatase of Methanothermobacter thermautotrophicus (Methanobacterium thermoautotrophicum) (protein, UniProt O26363 1-176, looked up)
Inorganic pyrophosphatase: MNLWKDIEPGPSVPEVVYAVVEIPKGSRNKYEYHKDLQAFALDRVLYSAVFYPAEYGIIPRTLYDDGDPMDILVLMDEPTFPGCIIESRPIGLLRMIDGGDQDDKILAVPVADPHFADVKDISDIPEHNLKEIANFFETYKKLEGKKTETLGWEGAEKAFEAVNHSIELYRKKYME
With B2, the “pH, optimum” value in data set [2] (60° C.) is listed as “pH 7.7 (60° C.)”. For the same molecule, the “Hill coefficient(s) (Mg^2+)” value in data set [2] is recorded as 2.0 (Mg^2+). Further, the “Hill coefficient(s) (PPi)” value in data set [2] (PPi) is reported as 3.3 (PPi),. Besides, the Km in data set [2] (for Mg^2+, read-out: Km Mg^2+) is 4900 µM; in data set [2] (for PPi, read-out: Km PPi), 160 µM. The Vmax in data set [2] was 570 U · mg^−1.

B3: Pyrococcus horikoshii: Class A type inorganic pyrophosphatase of Pyrococcus horikoshii (protein, UniProt O59570 1-178, looked up)
Inorganic pyrophosphatase: MNPFHDLEPGPNVPEVVYALIEIPKGSRNKYELDKETGLLKLDRVLYTPFHYPVDYGIIPRTWYEDGDPFDIMVIMREPTYPLTIIEARPIGLFKMIDSGDKDYKVLAVPVEDPYFKDWKDISDVPKAFLDEIAHFFKRYKELEGKEIIVEGWEGAEAAKREILRAIEMYKEKFGKKE
As for B3, in data set [2] (60° C.), the Vmax was 930 U · mg^−1. For the same molecule, the Km in data set [2] (for Mg^2+, read-out: Km Mg^2+) was 300 µM. For the same molecule, the “Hill coefficient(s)” value in data set [2] (in words) is listed as “Cooperative”. Besides, in data set [2] (substrate ADP), the “Substrate(s) hydrolyzed: ADP” value is “(2.9%)]”. The “Substrate(s) hydrolyzed: ATP” value in data set [2] (substrate ATP) was “ATP (5.9%); ADP”. For the same molecule, the “Substrate(s) hydrolyzed: P3” value in data set [2] (substrate P3) is reported as 2.7%.

What is called Ki is the dissociation constant of the complex between target and ligand, obtained from inhibition or displacement. High values mean a looser hold on the target, low ones a stronger hold on the target. The term Km denotes the substrate concentration at which the rate is half of its maximum.
